Experimental data taken from PMC5261807 (2017).
Non-standard residues stand in square brackets, D forms with d. No end group written: not given here. Arg(Me2a) = CN(C)C(=N)NCCC[C@H](N)C(=O)O; Lys(Me3) = C[N+](C)(C)CCCC[C@H](N)C(=O)O; Arg(Me2s) = CN=C(NC)NCCC[C@H](N)C(=O)O; pT = C[C@@H](OP(=O)(O)O)[C@H](N)C(=O)O; Me2a = asymmetric dimethyl (on Arg); Lys(Me2) = CN(C)CCCC[C@H](N)C(=O)O; Me2s = symmetric dimethyl (on Arg); pS = N[C@@H](COP(=O)(O)O)C(=O)O; Lys(Me) = CNCCCC[C@H](N)C(=O)O; Me3 = trimethyl (on Lys)

T1: Bdf1 bromodomain 2 (GST-tagged, WT) (Saccharomyces cerevisiae (strain ATCC …, UniProt P35817))
T1 chain: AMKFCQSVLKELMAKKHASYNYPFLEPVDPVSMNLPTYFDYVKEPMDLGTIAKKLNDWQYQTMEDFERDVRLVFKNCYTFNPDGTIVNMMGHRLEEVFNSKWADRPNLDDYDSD

T2: Bdf1 bromodomain 1 (GST-tagged, WT) (Saccharomyces cerevisiae (strain ATCC …, UniProt P35817))
T2 chain: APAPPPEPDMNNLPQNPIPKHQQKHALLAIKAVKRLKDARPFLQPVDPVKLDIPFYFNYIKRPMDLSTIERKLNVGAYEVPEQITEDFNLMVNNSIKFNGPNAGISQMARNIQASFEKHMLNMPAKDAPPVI


What was measured:
[1] = molecular target: T1, Bdf1 bromodomain 2 (GST-tagged, WT); test: histone peptide array probed with recombinant GST-bromodomain, signal normalised to myc peptide control
[2] = molecular target: T2, Bdf1 bromodomain 1 (GST-tagged, WT); test: as above

| binding score [1] | binding score [2] | Binder |
| --- | --- | --- |
| 0.0404 | 0.00681 | SGRGKGGKGLGKGGAKRHR (S G R G Kac G G K G L G K G G A K R H R) |
| 0.33 | 0.146 | SGRGKGGKGLGKGGAKRHR (S G R G Kac G G Kac G L G K G G A K R H R) |
| 0 | 0 | RKSAPATGGVKKPHRYRPG (R K S A P A T G G V Kme3 K P H R Y R P G) |
| 0.0292 | 0.0463 | RKSAPATGGVKKPHRYRPG (R K S A P A T G G V Kac K P H R Y R P G) |
| 0 | 0.00341 | PRKQLATKAA[Arg(Me2a)][Lys(Me)]SAPATGG |
| 0 | 0.00753 | PRKQLATKAA[Arg(Me2s)][Lys(Me3)][pS]APATGG |
| 0 | 0 | PRKQLATKAA[Arg(Me2a)][Lys(Me2)][pS]APATGG |
| 0.448 | 0.484 | SGRGKGGKGLGKGGAKRHR (S G R G K G G Kac G L G Kac G G A Kac R H R) |
| 0 | 0 | SGRGKGGKGLGKGGAKRHR (pS G Rme2s G K G G K G L G K G G A K R H R) |
| 0.00305 | 0.00341 | A[Arg(Me2s)]TK(Ac)QTARK(Me)STGGKAPRKQ |
| 0.00384 | 0 | A[Arg(Me2a)]T[Lys(Me3)]QTA[Arg(Me2a)][Lys(Me3)]STGGKAPRKQ |
| 0.00698 | 0.00197 | A[Arg(Me2s)]TK(Ac)QTA[Arg(Me2a)][Lys(Me2)]STGGKAPRKQ |
| 0.0269 | 0.0109 | ARTKQTARKSTGGKAPRKQ (A Rme2s T Kme1 Q T A Rme2s Kac S T G G K A P R K Q) |
| 0 | 0.01 | PRKQLATKAAR[Lys(Me2)]SAPATGG |
| 0.000885 | 0.00789 | ARTKQTARKSTGGKAPRKQ (A Rme2a pT Kme3 Q T A R K S T G G K A P R K Q) |
| 0 | 0 | ARTKQTARKSTGGKAPRKQ (A Rme2s T Kme2 Q T A R K S T G G K A P R K Q) |
| 0 | 0 | PRKQLATKAA[Arg(Me2a)][Lys(Me)][pS]APATGG |
| 0 | 0 | KKKKKRRRRRXKKKKRK (K Kme1 Kme2 Kme3 Kac R Rme2s R Rme2a R Cit K Kme1 Kac Kme3 R K) [background 01] |
| 0 | 0.0117 | ARTKQTARKSTGGKAPRKQ (A Rme2s T Kme3 Q T A R Kme3 S T G G K A P R K Q) |
| 0 | 0 | PRKQLATKAAR[Lys(Me2)][pS]APATGG |
| 0.137 | 0.0418 | SGRGKGGKGLGKGGAKRHR (S G Rme2a G Kac G G Kac G L G K G G A K R H R) |
| 0 | 0.00448 | ARTKQTA[Arg(Me2a)][Lys(Me2)][pS][pT]GGKAPRKQ |
| 0.00344 | 0.00323 | A[Arg(Me2s)][pT][Lys(Me)]QTARKSTGGKAPRKQ |
| 0 | 0 | ARTKQTARKSTGGKAPRKQ (A Rme2s T Kme3 Q T A R K S T G G K A P R K Q) |
| 0 | 0 | ARTKQTARKSTGGKAPRKQ (A Rme2a T Kme2 Q T A Rme2s Kme2 S T G G K A P R K Q) |
| 0 | 0 | ARTKQTARKSTGGKAPRKQ (A R T K Q T A R K S pT G G K A P R K Q) |
| 0 | 0.000538 | ARTKQTARKSTGGKAPRKQ (A Rme2s T Kme3 Q T A Rme2s Kme2 S T G G K A P R K Q) |
| 0.00187 | 0.0102 | AR(Me2a)TK(Me)QTAR(Me2s)K(Me)STGGKAPRKQ |
| 0 | 0 | PRKQLATKAA[Arg(Me2s)][Lys(Me)][pS]APATGG |

More lines, now with the values behind:

| Binder | binding score [1] | binding score [2] |
| --- | --- | --- |
| ART[Lys(Me3)]QTA[Arg(Me2a)][Lys(Me)]STGGKAPRKQ | 0.00148 | 0 |
| ARTKQTARKSTGGKAPRKQ (A R T K Q T A R Kme1 S pT G G K A P R K Q) | 0.00344 | 0.0122 |
| ARTKQTARKSTGGKAPRKQ (A Rme2a T Kme3 Q T A Rme2a Kac S T G G K A P R K Q) | 0 | 0.0145 |
| ARTKQTARKSTGGKAPRKQ (A R T K Q T A Rme2a Kme2 pS T G G K A P R K Q) | 0.0062 | 0.00215 |
| ARTK(Me3)QTAR(Me2s)K(Me)STGGKAPRKQ | 0 | 0 |
| SGRGK(Ac)QGGK(Ac)ARAK(Ac)AKSRSS | 0.394 | 0.144 |
| ARTKQTARKSTGGKAPRKQ (A Rme2a T Kac Q T A Rme2a K S T G G K A P R K Q) | 0.00718 | 0.00932 |
| ARTKQTARKSTGGKAPRKQ (A Rme2a T Kme2 Q T A Rme2a Kac S T G G K A P R K Q) | 0.00423 | 0.0126 |
| ARTKQTA[Arg(Me2a)][Lys(Me3)][pS][pT]GGKAPRKQ | 0 | 0.00251 |
| ARTKQTARKSTGGKAPRKQ (A Rme2s T Kac Q T A Rme2s Kme2 S T G G K A P R K Q) | 0 | 0 |
| ARTKQTARKSTGGKAPRKQ (A Rme2a T Kme1 Q T A Rme2s Kac S T G G K A P R K Q) | 0.0204 | 0.00717 |
| ARTKQTARKSTGGKAPRKQ (A Rme2s T Kme2 Q T A Rme2s Kac S T G G K A P R K Q) | 0.0314 | 0.0179 |
| ARTKQTARKSTGGKAPRKQ (A Rme2a T Kme2 Q T A Rme2s Kac S T G G K A P R K Q) | 0.0274 | 0.0213 |
| ARTKQTARKSTGGKAPRKQ (A Rme2a T Kme2 Q T A Rme2a K S T G G K A P R K Q) | 0.00698 | 0.00323 |
| ARTKQTARKSTGGKAPRKQ (A R T K Q T A R Kme1 S T G G Kac A P R K Q) | 0.0902 | 0.0251 |
| ART[Lys(Me)]QTA[Arg(Me2s)][Lys(Me)]STGGKAPRKQ | 0 | 0.0199 |
| ARTKQTARKSTGGKAPRKQ (A R T K Q T A R Kme1 S T G G K A P R K Q) | 0.00482 | 0 |
| ARTKQTARKSTGGKAPRKQ (not fully specified) | 0.00718 | 0.00592 |
| [pS]GRGK(Ac)QGGKARAKAKSRSS | 0.0135 | 0.00197 |
| AR[pT][Lys(Me3)]QTARKSTGGKAPRKQ | 0.006 | 0.00305 |
| ARTKQTARKSTGGKAPRKQ (A Rme2a T Kac Q T A Rme2a Kme3 S T G G K A P R K Q) | 0.00659 | 0.0133 |
| PDPAK(Ac)SAPAPKK(Ac)G[pS]K(Ac)KAVT [H2B 1-19] | 0.181 | 0 |
